Measurements: patent publication US20130224224A1 (Boehringer Ingelheim, published 2013)
Positions count from the first letter of the chain named. In names and notes the source's numbering stands.

T1: human CX3CR1 (human, UniProt P49238 1-355)
T1 construct: overexpressed on CHO, BA/F3 or HEK293T cells; also called huCX3CR1; hCX3CR1
T1 sequence: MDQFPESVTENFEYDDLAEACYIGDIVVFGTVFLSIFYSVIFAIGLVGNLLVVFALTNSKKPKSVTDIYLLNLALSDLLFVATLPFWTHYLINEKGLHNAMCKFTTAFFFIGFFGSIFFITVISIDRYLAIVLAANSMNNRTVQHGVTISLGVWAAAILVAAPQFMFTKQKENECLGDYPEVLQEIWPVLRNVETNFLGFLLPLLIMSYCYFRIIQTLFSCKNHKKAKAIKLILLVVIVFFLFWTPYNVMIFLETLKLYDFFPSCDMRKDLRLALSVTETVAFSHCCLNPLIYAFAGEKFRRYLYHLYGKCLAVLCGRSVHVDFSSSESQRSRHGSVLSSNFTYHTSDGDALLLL

T2: cynomolgus CX3CR1 (cynomolgus, UniProt P49238 1-355 (human entry))
T2 construct: transiently expressed on HEK293T cells; also called cyCX3CR1; cyno CX3CR1
T2 chain: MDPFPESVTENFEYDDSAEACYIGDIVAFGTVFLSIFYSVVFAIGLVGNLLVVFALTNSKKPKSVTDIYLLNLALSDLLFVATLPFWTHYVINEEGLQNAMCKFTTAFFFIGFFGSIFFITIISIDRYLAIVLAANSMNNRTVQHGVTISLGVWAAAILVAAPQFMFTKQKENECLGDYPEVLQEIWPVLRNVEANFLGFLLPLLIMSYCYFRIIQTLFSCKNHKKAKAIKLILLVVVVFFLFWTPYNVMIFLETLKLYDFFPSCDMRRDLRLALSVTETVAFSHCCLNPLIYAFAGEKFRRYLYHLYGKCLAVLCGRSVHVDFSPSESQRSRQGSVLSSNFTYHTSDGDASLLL

B1: CX3CR1BIIPMP54B3 (VHH)
VHH: EVQLVESGGGSVQAGESLRLSCAASGSIFSSNAMAWYRQAPGKQRDLVAAINSVGITKYADSVKGRFTISRDNAKNTVYLQMNSLKPEDTAVYYCTSDPRRGWDTRYWGQGTQVTVSS
notes: also called 54B03; not shown: C-terminal c-myc and His6 tags
B2: CX3CR1BIIPMP66G01 (VHH)
VHH: B1 VHH with V2M, A50L, P99G
notes: also called CX3CR1BII66G01; not shown: C-terminal c-myc and His6 tags
B3: CX3CR1BIIPMP54G3 (VHH)
VHH: B1 VHH with A50L, Q113L
notes: also called 54G03; not shown: C-terminal c-myc and His6 tags
B4: CX3CR1BIIPMP54H1 (VHH)
VHH: B1 VHH with S27T, A50G, G55D, I69V, D104N
notes: also called 54H01; not shown: C-terminal c-myc and His6 tags
B5: CX3CR1BIIPMP61B2 (VHH)
VHH: B1 VHH with G8R, E16A, A50V, S53T, P99A
notes: also called 61B02; not shown: C-terminal c-myc and His6 tags
B6: CX3CR1BIIPMP54D8 (VHH)
VHH: B1 VHH with E16G, A50G, Q113L
notes: also called 54D08; CX3CR1BII54D08; not shown: C-terminal c-myc and His6 tags
B7: CX3CR1BIIPMP61E2 (VHH)
VHH: B1 VHH with A50G, T90M
notes: also called 61E02; not shown: C-terminal c-myc and His6 tags
B8: CX3CR1BIIPMP54A4 (VHH)
VHH: B1 VHH with G9R, A50G
notes: also called 54A04; not shown: C-terminal c-myc and His6 tags
B9: CX3CR1BIIPMP61G4 (VHH)
VHH: B1 VHH with E1K, E16G, N83M
notes: also called 61G04; not shown: C-terminal c-myc and His6 tags
B10: CX3CR1BIIPMP61F11 (VHH)
VHH: B1 VHH with E1K, A40P, S70F
notes: not shown: C-terminal c-myc and His6 tags
B11: CX3CR1BIIPMP61G3 (VHH)
VHH: B1 VHH with E1K, V12M, N83M
notes: also called 61G03; not shown: C-terminal c-myc and His6 tags
B12: CX3CR1BII66B02 (N52T, Q108L) (VHH, name in Kabat numbering)
VHH: B1 VHH with Q44R, N52T, I56V, Q113L
notes: Kabat numbering
B13: CX3CR1BII66B02 (S53T, Q108L) (VHH, name in Kabat numbering)
VHH: B1 VHH with Q44R, S53T, I56V, Q113L
notes: Kabat numbering
B14: CX3CR1BII66B02 (N52G, Q108L) (VHH, name in Kabat numbering)
VHH: B1 VHH with Q44R, N52G, I56V, Q113L
notes: Kabat numbering
B15: CX3CR1BII66B02 (N52Q, Q108L) (VHH, name in Kabat numbering)
VHH: B1 VHH with Q44R, N52Q, I56V, Q113L
notes: Kabat numbering
B16: CX3CR1BII66B02 (S53G, Q108L) (VHH, name in Kabat numbering)
VHH: B1 VHH with Q44R, S53G, I56V, Q113L
notes: Kabat numbering
B17: CX3CR1BII66B02 (N52S, Q108L) (VHH, name in Kabat numbering)
VHH: B1 VHH with Q44R, N52S, I56V, Q113L
B18: CX3CR1BII66B02 (S53P, Q108L) (VHH, name in Kabat numbering)
VHH: B1 VHH with Q44R, S53P, I56V, Q113L
notes: Kabat numbering
B19: C100CX3CR1BII060 (VHH)
VHH: B1 VHH with S11L, A14P, E16G, D46E, I56V, A74S, K86R, Q113L
notes: 66B02 with S11L, A14P, E16G, R44Q, D46E, A74S, K83R, Q108L; not shown: myc/His tag
B20: C100CX3CR1BII061 (VHH)
VHH: B1 VHH with S11L, A14P, E16G, Q44R, I56V, A74S, K86R, Q113L
notes: 66B02 with S11L, A14P, E16G, A74S, K83R, Q108L; not shown: myc/His tag

The binders below were run against T1, human CX3CR1 (assay: A647-fractalkine competition FACS, HEK293-huCX3CR1).
From the text: (§1) Periplasmic extracts were screened in a human CX3CR1/human Fractalkine FACS competition assay to assess the blocking capacity of the expressed VHHs. Human CX3CR1 was presented on CHO cells overexpressing CX3CR1. Both a setup using cells harvested from an actively growing culture and a setup using frozen cells was used. As a detection reagent labeled fractalkine was used (R&D Systems, Minneapolis, Minn., USA) labeled with alexa647 (A647-Fractalkine) at a degree of labeling of 1. To setup the assay, first a titration series of the labeled fractalkine was performed on the CHO-huCX3CR1 cells in order to determine the EC50 value for binding. Initially screening was performed at a higher concentration of fractalkine (3 nM) to increase the assay robustness. To increase the sensitivity of the screening to a maximum, the EC30 concentration (1 nM) was chosen for subsequent screening. In brief 50 μl of periplasmic extract was added to 6 nM labeled fractalkine (50 μ;) and 200 000 CHO-huCX3CR1 cells. After one hour incubation at 4 C, cells were washed three times before read out was performed on a FACS Array (Becton Dickinson). First a gate was set on the intact cells as determined from the scatter profile. Next, dead cells were gated out by their fluorescence profile from the PI stain (Sigma, St Louis, US). The fluorescence profile from the alexa647 label was determined for each sample and used for calculation of blocking capacity. As controls, conditions were taken along where there was no VHH present in the peri extract or a known irrelevant VHH and samples were included where excess cold fractalkine was included. For each sample the percentage block was determined using the control samples to determine the assay window.
(§2) The blocking capacity towards the ligand fractalkine of the VHHs was evaluated in a human CX3CR1 competition FACS as outlined in Example 4. Either CHO-huCX3CR1 cells, BA/F3-huCX3CR1 cells or transiently transfected HEK293T cells were used. The amount of labeled ligand used in the different competition setups was also varied. The IC₅₀ values for VHHs blocking the interaction of human fractalkine to human CX3CR1 are depicted in Table 19.

% block	IC50	Binder
92%	67 nM	B1
99%	14 nM	B2
89%	270 nM	B3
64%	10 nM	B4
94%	10 nM	B5
95%	84 nM	B6
98%	82 nM	B7
100%	49 nM	B8
96%	42 nM	B9
96%	46 nM	B10
96%	60 nM	B11

These binders were tested against T1, human CX3CR1 (assay: A647-fractalkine competition FACS, BA/F3-huCX3CR1).
From the text: as §1, §2

% block	IC50	Binder
99%	33 nM	B1
98%	98 nM	B3
99%	38 nM	B6

Each binder was assayed against T1, human CX3CR1 (assay: cell-based or functional assay).

% block, fractalkine induced chemotaxis	IC50, fractalkine induced chemotaxis	Binder
73%	100 nM	B1
54%	400 nM	B2
40%		B3
33%		B6

Each binder was assayed against T1, human CX3CR1 (assay: periplasmic extract, A647-fractalkine competition FACS, CHO-huCX3CR1).
From the text: as §1

% block	Binder
90.1%	B1
74.7%	B3
74.6%	B4
94.5%	B5
64.1%	B6
70.3%	B7
86.6%	B8
94.5%	B9
96.5%	B10
92.1%	B11

What follows are binders tested against T1, human CX3CR1 (assay: A647-fractalkine competition FACS, CHO-huCX3CR1).
From the text: as §1, §2

% block	IC50	Binder
108%	25 nM	B1
107%	56 nM	B3
101%	15 nM	B6

What follows are binders tested against T1, human CX3CR1 (assay: fractalkine competition FACS).

% block	IC50	Binder
98%	2.8 nM	B12
98.1%	1.3 nM	B13
98%	1.1 nM	B14
97.9%	2.1 nM	B15
98.3%	1.2 nM	B16
98%	1.7 nM	B17
98.2%	0.8 nM	B18

Molecular target: T2, cynomolgus CX3CR1
Assay: A647-fractalkine competition FACS, cynomolgus against human CX3CR1
From the text: as §1
(§3) For later identified VHHs, a human Fractalkine competition FACS was set up using human or cynomolgus CX3CR1 expressed in HEK293T cells. Both the human and the cynomolgus receptor was transiently transfected in HEK293T cells and transfections were matched by the binding of the labeled ligand, human fractalkine. The competition was evaluated using the EC30 concentration of fractalkine and as such obtained IC50 values are a good estimate of the Ki value, a measure for affinity (Table 22). The experiment was performed as described in Example 4.

ratio (cynomolgus/human IC50)	Binder
7.05	B1
8.29	B2
1.74	B3
6.48	B4
4.37	B5
0.85	B6
0.55	B7
0.64	B8
4.8	B9
3.58	B10
5.02	B11

Molecular target: T2, cynomolgus CX3CR1
Assay: A647-fractalkine competition FACS, HEK293T cynomolgus CX3CR1
From the text: as §1, §3

% block	IC50	Binder
95%	470 nM	B1
100%	120 nM	B2
89%	470 nM	B3
92%	68 nM	B4
92%	45 nM	B5
91%	72 nM	B6
96%	46 nM	B7
91%	31 nM	B8
100%	200 nM	B9
95%	160 nM	B10
89%	300 nM	B11

Molecular target: T1, human CX3CR1
Assay: fractalkine competition FACS
Remark: another data set of the same source

% block	IC50	Binder
98.4%	190 nM	B19
98.9%	1.4 nM	B20

What follows are binders tested against T1, human CX3CR1 (assay: A647-fractalkine competition FACS, HEK293T human CX3CR1).
From the text: as §1, §3

% block	IC50	Binder
92%	67 nM	B1
99%	14 nM	B2
89%	270 nM	B3
64%	10 nM	B4
94%	10 nM	B5
95%	84 nM	B6
98%	82 nM	B7
100%	49 nM	B8
96%	42 nM	B9
96%	46 nM	B10
96%	60 nM	B11
